Data published in patent publication US20110213019, “Compositions and Methods for Treating Cancer, Inhibiting Proliferation, and Inducing Cell Death” (UNIVERSITY OF LOUISVILLE RESEARCH FOUNDATION, INC., published 2011).

Experiments:
[1] = target: alpha-enolase (UniProt P06733 P06733:2-434); test: EMSA; strong binding; supershifted by alpha-enolase polyclonal antibody; conditions: parallel G4
Text: (§1) EMSAs were used to characterize the binding of α-enolase and MBP-1 to the c-myc quadruplex-forming sequence. […] The quadruplex oligonucleotide aptamer, GRO29A, competed for α-enolase and MBP-1 binding to PU27. […] A mutation in the PU27 sequence, which prevents quadruplex formation, abrogated binding of both α-enolase and MBP-1. MBP-1 also binds to a downstream site in the P2 promoter.

[2] = target: MBP-1 (alternative translation product of alpha-enolase) (UniProt P06733-2 P06733-2:1-341); test: as above; conditions: parallel G4
Sequence of MBP-1 (alternative translation product of alpha-enolase) (P06733 94-434, one chain of several): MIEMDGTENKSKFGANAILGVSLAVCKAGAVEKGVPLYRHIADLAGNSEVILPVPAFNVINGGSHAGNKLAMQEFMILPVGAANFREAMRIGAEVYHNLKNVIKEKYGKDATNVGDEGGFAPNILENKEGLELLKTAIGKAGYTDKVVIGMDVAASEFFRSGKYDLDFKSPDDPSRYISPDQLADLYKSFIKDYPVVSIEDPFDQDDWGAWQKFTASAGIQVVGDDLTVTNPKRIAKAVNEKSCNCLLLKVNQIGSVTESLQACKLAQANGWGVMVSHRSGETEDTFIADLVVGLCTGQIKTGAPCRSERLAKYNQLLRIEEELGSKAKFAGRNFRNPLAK
Text: as §1

Sequence of alpha-enolase (P06733 2-434, one chain of several): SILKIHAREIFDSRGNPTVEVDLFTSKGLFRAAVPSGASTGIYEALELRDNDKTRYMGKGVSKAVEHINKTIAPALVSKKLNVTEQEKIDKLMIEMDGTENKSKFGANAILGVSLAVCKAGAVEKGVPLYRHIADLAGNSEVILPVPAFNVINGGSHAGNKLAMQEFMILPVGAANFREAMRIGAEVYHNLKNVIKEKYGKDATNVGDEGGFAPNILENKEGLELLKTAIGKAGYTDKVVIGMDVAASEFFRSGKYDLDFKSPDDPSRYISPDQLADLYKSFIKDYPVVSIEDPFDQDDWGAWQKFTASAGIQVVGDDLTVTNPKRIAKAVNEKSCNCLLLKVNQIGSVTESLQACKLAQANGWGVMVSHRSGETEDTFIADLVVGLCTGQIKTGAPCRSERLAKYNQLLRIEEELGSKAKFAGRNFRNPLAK

Which results are given for TGGGGAGGGTGGGGAGGGTGGGGAAGG (structured_DNA) [PU27 (c-Myc promoter quadruplex)]?
binding result [1]: binds; binding result [2]: binds
